These results are taken from paper PMC10268282, “Activator-induced conformational changes regulate division-associated peptidoglycan amidases” (Proceedings of the National Academy of Sciences of the …, 2023).

The target of this test is T1, AmiB hydrolytic domain from Citrobacter rodentium (Citrobacter rodentium, UniProt A0A482PQR2 190-422).
T1 construct: AmiB peptidoglycan amidase, Citrobacter rodentium, hydrolytic (enzymatic) domain, cloned without the N-terminal AmiN domain; Construct limits and tags in SI Appendix; also called AmiB enzymatic domain
T1 sequence: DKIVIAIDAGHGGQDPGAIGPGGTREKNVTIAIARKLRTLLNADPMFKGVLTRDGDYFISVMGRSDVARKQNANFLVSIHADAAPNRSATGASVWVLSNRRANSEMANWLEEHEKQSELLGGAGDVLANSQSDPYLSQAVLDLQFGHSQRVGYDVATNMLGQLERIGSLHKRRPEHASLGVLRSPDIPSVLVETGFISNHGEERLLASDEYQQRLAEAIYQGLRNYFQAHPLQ
The test is described as follows: crystal structure; X-ray crystallography, 3.4 Å; molecular replacement with Alphafold models. The settings on record: both partners purified.

B1: EnvC LytM domain from Citrobacter rodentium (domain or fragment)
chain: MSRTGGLGSPRGQAYWPVRGPTLHRYGEQLQGELRWKGMVIGASEGTEVKAIADGRVILADWLQGYGLVVVVEHGKGDMSLYGYNQSALVSVGTQVRAGQPIALVGSSGGQGRPSLYFEIRRQGQAVNPQPWLGR
notes: EnvC, Citrobacter rodentium, LytM domain; Construct limits and tags in SI Appendix
For B1, the binding result was “binds”.
